This assay has as its target Human FANCD2, non-tagged (human, UniProt Q9BXW9-2 1-1451). Kind of assay: co-IP.

Human FANCD2, non-tagged, sequence (Q9BXW9 whole entry): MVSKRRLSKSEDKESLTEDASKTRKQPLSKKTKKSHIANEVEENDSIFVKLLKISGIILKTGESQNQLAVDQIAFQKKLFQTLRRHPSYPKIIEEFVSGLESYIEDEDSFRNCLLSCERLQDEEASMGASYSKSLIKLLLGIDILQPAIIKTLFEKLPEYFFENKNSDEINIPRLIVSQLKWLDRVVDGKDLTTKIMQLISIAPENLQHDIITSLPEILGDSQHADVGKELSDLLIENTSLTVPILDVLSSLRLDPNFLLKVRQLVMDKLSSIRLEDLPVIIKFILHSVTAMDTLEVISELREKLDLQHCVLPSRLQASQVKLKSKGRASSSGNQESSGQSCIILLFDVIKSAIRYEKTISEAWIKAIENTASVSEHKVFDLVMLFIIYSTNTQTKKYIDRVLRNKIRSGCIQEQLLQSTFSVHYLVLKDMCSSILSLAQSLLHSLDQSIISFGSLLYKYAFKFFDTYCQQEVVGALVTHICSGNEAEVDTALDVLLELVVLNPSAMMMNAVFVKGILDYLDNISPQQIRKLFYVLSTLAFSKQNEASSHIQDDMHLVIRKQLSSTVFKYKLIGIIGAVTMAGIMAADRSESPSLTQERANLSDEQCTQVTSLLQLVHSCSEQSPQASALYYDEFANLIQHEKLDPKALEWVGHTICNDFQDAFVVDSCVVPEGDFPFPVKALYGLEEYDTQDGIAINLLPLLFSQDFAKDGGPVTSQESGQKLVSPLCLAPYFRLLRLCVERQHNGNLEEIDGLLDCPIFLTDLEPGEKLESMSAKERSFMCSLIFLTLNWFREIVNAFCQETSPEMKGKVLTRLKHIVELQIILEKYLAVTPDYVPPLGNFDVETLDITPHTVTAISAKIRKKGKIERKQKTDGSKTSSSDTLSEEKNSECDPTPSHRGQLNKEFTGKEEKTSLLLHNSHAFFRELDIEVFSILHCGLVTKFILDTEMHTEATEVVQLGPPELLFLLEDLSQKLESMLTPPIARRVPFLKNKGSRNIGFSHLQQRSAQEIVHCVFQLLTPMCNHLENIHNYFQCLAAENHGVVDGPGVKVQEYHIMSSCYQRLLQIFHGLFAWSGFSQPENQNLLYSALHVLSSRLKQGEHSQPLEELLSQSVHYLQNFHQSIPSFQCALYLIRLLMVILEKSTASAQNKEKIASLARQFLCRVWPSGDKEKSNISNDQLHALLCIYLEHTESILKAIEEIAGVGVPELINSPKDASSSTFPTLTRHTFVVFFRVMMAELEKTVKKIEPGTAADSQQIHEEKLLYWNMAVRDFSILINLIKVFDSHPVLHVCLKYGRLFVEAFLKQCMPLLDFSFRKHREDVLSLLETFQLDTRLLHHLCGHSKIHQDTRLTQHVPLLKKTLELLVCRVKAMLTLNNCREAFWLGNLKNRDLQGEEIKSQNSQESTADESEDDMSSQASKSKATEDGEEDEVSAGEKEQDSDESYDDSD

B1: FANCI-(1001–1328), hexahistidine-tagged (domain or fragment, human, UniProt Q9NVI1-3 1001-1328, looked up)
chain: PQFVQMLSWTSKICKENSREDALFCKSLMNLLFSLHVSYKSPVILLRDLSQDIHGHLGDIDQDVEVEKTNHFAIVNLRTAAPTVCLLVLSQAEKVLEEVDWLITKLKGQVSQETLSEEASSQATLPNQPVEKAIIMQLGTLLTFFHELVQTALPSGSCVDTLLKDLCKMYTTLTALVRYYLQVCQSSGGIPKNMEKLVKLSGSHLTPLCYSFISYVQNKSKSLNYTGEKKEKPAAVATAMARVLRETKPIPNLIFAIEQYEKFLIHLSKKSKVNLMQHMKLSTSRDFKIKGNILDMVLREDGEDENEEGTASEHGGQNKEPAKKKRKK
On to B1, for which the binding result was “binds”.

B2: FANCI-D1301A, hexahistidine-tagged (EDGE motif mutant) (natural protein, human, UniProt Q9NVI1-3 1-1328, looked up)
chain: MDQKILSLAAEKTADKLQEFLQTLREGDLTNLLQNQAVKGKVAGALLRAIFKGSPCSEEAGTLRRRKIYTCCIQLVESGDLQKEIASEIIGLLMLEAHHFPGPLLVELANEFISAVREGSLVNGKSLELLPIILTALATKKENLAYGKGVLSGEECKKQLINTLCSGRWDQQYVIQLTSMFKDVPLTAEEVEFVVEKALSMFSKMNLQEIPPLVYQLLVLSSKGSRKSVLEGIIAFFSALDKQHNEEQSGDELLDVVTVPSGELRHVEGTIILHIVFAIKLDYELGRELVKHLKVGQQGDSNNNLSPFSIALLLSVTRIQRFQDQVLDLLKTSVVKSFKDLQLLQGSKFLQNLVPHRSYVSTMILEVVKNSVHSWDHVTQGLVELGFILMDSYGPKKVLDGKTIETSPSLSRMPNQHACKLGANILLETFKIHEMIRQEILEQVLNRVVTRASSPISHFLDLLSNIVMYAPLVLQSCSSKVTEAFDYLSFLPLQTVQRLLKAVQPLLKVSMSMRDCLILVLRKAMFANQLDARKSAVAGFLLLLKNFKVLGSLSSSQCSQSLSVSQVHVDVHSHYNSVANETFCLEIMDSLRRCLSQQADVRLMLYEGFYDVLRRNSQLANSVMQTLLSQLKQFYEPKPDLLPPLKLEACILTQGDKISLQEPLDYLLCCIQHCLAWYKNTVIPLQQGEEEEEEEEAFYEDLDDILESITNRMIKSELEDFELDKSADFSQSTSIGIKNNICAFLVMGVCEVLIEYNFSISSFSKNRFEDILSLFMCYKKLSDILNEKAGKAKTKMANKTSDSLLSMKFVSSLLTALFRDSIQSHQESLSVLRSSNEFMRYAVNVALQKVQQLKETGHVSGPDGQNPEKIFQNLCDITRVLLWRYTSIPTSVEESGKKEKGKSISLLCLEGLQKIFSAVQQFYQPKIQQFLRALDVTDKEGEEREDADVSVTQRTAFQIRQFQRSLLNLLSSQEEDFNSKEALLLVTVLTSLSKLLEPSSPQFVQMLSWTSKICKENSREDALFCKSLMNLLFSLHVSYKSPVILLRDLSQDIHGHLGDIDQDVEVEKTNHFAIVNLRTAAPTVCLLVLSQAEKVLEEVDWLITKLKGQVSQETLSEEASSQATLPNQPVEKAIIMQLGTLLTFFHELVQTALPSGSCVDTLLKDLCKMYTTLTALVRYYLQVCQSSGGIPKNMEKLVKLSGSHLTPLCYSFISYVQNKSKSLNYTGEKKEKPAAVATAMARVLRETKPIPNLIFAIEQYEKFLIHLSKKSKVNLMQHMKLSTSRDFKIKGNILDMVLREAGEDENEEGTASEHGGQNKEPAKKKRKK
As to B2, the binding result is “binds”.

The values above are taken from PMC2782037 (The Journal of Biological Chemistry, 2009).
